{"source": "paper PMC6894071", "key": {"[1]": {"biological_target": "Feline CAT1/SLC7A1, endogenous in CC81-GREMG cells (feline (endogenous in CC81-GREMG))", "assay": "flow cytometry on cells"}, "[2]": {"biological_target": "EGFP-tagged bovine cationic amino acid transporter 1 (CAT1)/solute carrier family 7 member 1 (SLC7A1) (bovine) (UniProt F1N5P6)", "assay": "flow cytometry on cells"}}}
{"substance": "Bovine leukemia virus envelope glycoprotein (Env) on BLV particles (from UniProt P03380 34-301; P03380 302-515) (complex)", "values": [{"measurement": "percent of cells bound with BLV particles (with control serum 1:10)", "setting": "[1]", "value": 57, "unit": "%"}, {"measurement": "percent of cells bound with BLV particles (with control serum 1:50)", "setting": "[1]", "value": 49, "unit": "%"}, {"measurement": "percent APC-EGFP double-positive cells at 1 h", "setting": "[2]", "value": 18.7, "unit": "%"}, {"measurement": "percent APC-EGFP double-positive cells at 2 h", "setting": "[2]", "value": 23.7, "unit": "%"}]}
